Test [1] deals with phospholipase Cγ1 (PLCγ1) (UniProt P19174). As to the kind of experiment: biotin-peptide streptavidin-agarose pull-down, Western blot. As to conditions: reference: non-phosphorylated Cav1 peptide; sites Y14. (In general: Immunoblotting shows a protein as a band on a membrane.)
Test [2] concerns the target p85 regulatory subunit of PI3 kinase (PI3K-p85; p85α in Table 1) (UniProt P27986). Described as above. The settings on record: reference: non-phosphorylated Cav1 peptide; sites Y14.
Test [3] deals with T1, caveolin-1 (human (endogenous in Chang cells)), Q03135.
T1 chain: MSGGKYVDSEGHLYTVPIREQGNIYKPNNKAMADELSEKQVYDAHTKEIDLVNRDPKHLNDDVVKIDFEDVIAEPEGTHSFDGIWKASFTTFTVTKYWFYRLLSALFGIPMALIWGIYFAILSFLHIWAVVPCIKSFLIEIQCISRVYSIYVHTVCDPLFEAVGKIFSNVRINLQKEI
Nature of the test: co-IP; as a1, but Chang cells infected with N138 (PorBIB, P+) at MOI 20 for 1 h; endogenous Cav1 precipitated, Western blot. The settings on record: remark: other sources report otherwise.

In test [4] the target is T1, caveolin-1 (human (endogenous in Chang …)). As to the kind of experiment: co-IP; endogenous Cav1 precipitated with anti-Caveolin antibody (BD Transduction) and Protein G magnetic beads from Chang cell lysates (20 mM Tris, 150 mM NaCl, 1% Triton-X-100, pH 7.5); cells not infected or infected with N927 (PorBIA, P-) at MOI 20 for 1 h; in one experiment PLCγ1 inhibitor U73122 (10 µM) added 30 min before infection; Western blot. As to conditions: remark: other sources report otherwise.

The values that follow come from paper PMC3662692.

With “caveolin-1 (Cav1) 7-21 (from UniProt Q03135) Cav1 pY14 peptide”, the “binding against the reference” value in test [1] and in test [2] was “gained” in each case.

B1: Vav2, P52735 1-878 (natural protein)
chain: MEQWRQCGRWLIDCKVLPPNHRVVWPSAVVFDLAQALRDGVLLCQLLHNLSPGSIDLKDINFRPQMSQFLCLKNIRTFLKVCHDKFGLRNSELFDPFDLFDVRDFGKVISAVSRLSLHSIAQNKGIRPFPSEETTENDDDVYRSLEELADEHDLGEDIYDCVPCEDGGDDIYEDIIKVEVQQPMIRYMQKMGMTEDDKRNCCLLEIQETEAKYYRTLEDIEKNYMSPLRLVLSPADMAAVFINLEDLIKVHHSFLRAIDVSVMVGGSTLAKVFLDFKERLLIYGEYCSHMEHAQNTLNQLLASREDFRQKVEECTLKVQDGKFKLQDLLVVPMQRVLKYHLLLKELLSHSAERPERQQLKEALEAMQDLAMYINEVKRDKETLRKISEFQSSIENLQVKLEEFGRPKIDGELKVRSIVNHTKQDRYLFLFDKVVIVCKRKGYSYELKEIIELLFHKMTDDPMNNKDVKKSHGKMWSYGFYLIHLQGKQGFQFFCKTEDMKRKWMEQFEMAMSNIKPDKANANHHSFQMYTFDKTTNCKACKMFLRGTFYQGYMCTKCGVGAHKECLEVIPPCKFTSPADLDASGAGPGPKMVAMQNYHGNPAPPGKPVLTFQTGDVLELLRGDPESPWWEGRLVQTRKSGYFPSSSVKPCPVDGRPPISRPPSREIDYTAYPWFAGNMERQQTDNLLKSHASGTYLIRERPAEAERFAISIKFNDEVKHIKVVEKDNWIHITEAKKFDSLLELVEYYQCHSLKESFKQLDTTLKYPYKSRERSASRASSRSPASCASYNFSFLSPQGLSFASQGPSAPFWSVFTPRVIGTAVARYNFAARDMRELSLREGDVVRIYSRIGGDQGWWKGETNGRIGWFPSTYVEEEGIQ
B1 came in with a relative amount of Vav2 in the Cav1 precipitate, cells infected with N138 (non-infected cells = 100%) in test [3] of 99%. Moreover, in test [4], the relative amount of Vav2 in the Cav1 precipitate, cells infected with N927 (non-infected cells = 100%) is 50% and the relative amount of Vav2 in the Cav1 precipitate, non-infected cells (reference) is 100%.
